# What was measured:
# [1] = target: TW1 (DtxR-Geminin coiled-coil-SpyCatcher) (UniProt P0DJL7); assay: mass photometry
# [2] = target: TW2 (TrpR-Geminin coiled-coil-SpyTag-Geminin coiled-coil-MetJ) (UniProt P0A881); assay: mass photometry
stoichiometry N [1],Substance,stoichiometry N [2]
2,TW1 (DtxR-Geminin coiled-coil-SpyCatcher) (from UniProt P0DJL7 2-121; O75496 110-145),–
–,TW2 (TrpR-Geminin coiled-coil-SpyTag-Geminin coiled-coil-MetJ) (from UniProt P0A881 2-108; O75496 110-145; O75496 110-145; P0A8U6 2-105),2

# Reference: article doi:10.1101/2025.03.07.641123
